Test results as given in patent US12018084B2, “Anti-CXCR2 antibodies and uses thereof” (Cephalon LLC, priority 2018, dated 2024).
Like-named read-outs stand apart in the source and are kept apart here.

T1: native human CXCR2 expressed by human neutrophils (Homo sapiens, UniProt P25025)
T1 construct: native human CXCR2 expressed by human neutrophils; endogenous in cells; host or cells: human peripheral blood cells (buffy coat, PBMC-enriched fractions, anticoagulated blood): neutrophils, monocytes
T1 sequence (P25025 1-360): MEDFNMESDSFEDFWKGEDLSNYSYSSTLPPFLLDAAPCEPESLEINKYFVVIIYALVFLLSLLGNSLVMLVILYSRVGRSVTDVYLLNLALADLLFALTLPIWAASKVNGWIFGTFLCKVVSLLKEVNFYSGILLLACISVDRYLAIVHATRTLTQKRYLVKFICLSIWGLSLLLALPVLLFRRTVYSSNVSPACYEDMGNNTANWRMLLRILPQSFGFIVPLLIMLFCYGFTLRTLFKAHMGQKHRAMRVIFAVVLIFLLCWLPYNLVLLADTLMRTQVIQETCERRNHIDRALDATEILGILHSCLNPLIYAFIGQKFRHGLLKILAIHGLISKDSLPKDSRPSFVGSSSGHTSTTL

T2: Human CXCR2 (Homo sapiens, UniProt P25025)
T2 sequence (P25025 1-360): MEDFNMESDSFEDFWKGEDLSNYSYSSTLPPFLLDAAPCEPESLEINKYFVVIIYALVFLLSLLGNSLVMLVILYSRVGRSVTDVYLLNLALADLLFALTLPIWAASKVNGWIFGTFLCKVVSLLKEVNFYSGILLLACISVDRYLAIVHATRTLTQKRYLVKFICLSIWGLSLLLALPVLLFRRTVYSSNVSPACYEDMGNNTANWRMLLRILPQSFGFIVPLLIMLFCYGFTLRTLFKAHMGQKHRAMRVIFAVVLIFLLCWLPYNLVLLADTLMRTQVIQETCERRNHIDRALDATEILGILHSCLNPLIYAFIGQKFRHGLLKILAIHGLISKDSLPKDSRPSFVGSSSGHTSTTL


Columns and labels:
[1] = target: T1, native human CXCR2 expressed by human neutrophils; experiment: Flow cytometry binding to human blood cells (neutrophils, monocytes, PBMC preparations)
Procedure: Whole human buffy coat, PBMC enriched fractions prepared from human peripheral blood buffy coat or cynomolgus monkey whole blood was used for analysis of antibody binding activity by flow cytometry. Briefly, blood was untreated or diluted 1:1 in sterile filtered room temperature phosphate-buffered saline (PBS). 30 mL samples were layered over 15 mL Lymphoprep™ (Stem Cell Technologies, cat #07851). Peripheral blood mononuclear cells (PBMC) were enriched by room temperature centrifugation at 700 g for 30 minutes with no braking. The PBMC layer was isolated and cells washed in PBS containing 2 mM EDTA with low speed centrifugation at 200 g, to remove platelet contamination. Whole blood or PBMC enriched cell fractions were resuspended in red blood cell lysing solution (BioLegend, 420301). Viable cell counts were determined and cells resuspended at 1×10^7 cells per mL in FACS buffer (1×PBS+0.5% (w/v) BSA+2 mM EDTA pH 7.2).
Flow cytometry binding assays using whole blood or PBMC enriched preparations: Binding assays to detect CXCR2 on blood neutrophil populations using test antibodies were performed essentially as described for assays using transiently transfected Expi293F™ cells. Binding of antibodies to human CXCR2 on the surface of the neutrophils was measured using anti-CXCR2 antibody directly conjugated to the fluorophore allophycocyanin (APC). Matched isotype control antibodies were included for comparison. Cells were incubated with lineage specific antibodies and 2 μg/ml of APC conjugated anti-CXCR2 antibody or isotype control prepared in ice cold 3% BSA/PBS for a minimum of 30 minutes at 4° C. The commercial anti-CXCR2 antibody (clone 48331 (R&D Systems FAB331A)) was used as a positive control. Neutrophil populations were identified by characteristic granularity and size, and positive binding of commercially available antibodies against CD10 (Biolegend, clone H110a, catalogue number 312204). Cells were washed and fixed (BioLegend Fixation buffer, 420801) prior to analysis. The level of fluorescence on the cell surface was measured by flow cytometry. Using this method, test anti-CXCR2 antibodies were detected binding neutrophils from both human and cynomolgus monkey.
To further characterize the anti-CXCR2 antibody BKO-4A8-101c, the ability to bind CXCR2 on neutrophils was tested on anticoagulated human blood. Binding was measured using BKO-4A8-101c directly conjugated to fluorophore APC. Matched isotype control antibodies conjugated to APC were included for comparison. Cells were incubated with lineage-specific antibodies and 2 μg/mL of APC conjugated anti-CXCR2 antibody or isotype control. The level of fluorescence on the cell surface was measured by flow cytometry. […]

Human CXCR2 = target: T2, Human CXCR2; experiment: Tango CXCR2-bla U2OS cell-based β-arrestin recruitment assay; design: The beta-arrestin/TEV protease fusion and the beta-lactamase reporter are separate parts of the cell line
Source text: Cells were thawed, propagated, cultured and frozen according to the manufacturer's directions.
Preparation of Tango™ CXCR2-bla U2OS cells for use in cell-based assays: The manufacturer's protocol was altered to make use of 96-well plates instead of 384-well plates. Briefly, dividing cells were harvested one day prior to use. Cells were harvested and resuspended in assay medium (100% FreeStyle™ Expression Medium; Life Technologies; Cat #12338-018) at a viable cell density of 312,500 cells/mL. 128 μL of cell suspension was added per well in 96-well black-walled, clear bottom tissue culture-treated plates. Cells were incubated for 16-20 hrs at 37° C. in an atmosphere of 5% CO2 prior to use in assays.
Tango™ assay procedure: Assays were set up and run as described in the manufacturer's protocol. For antagonist assays, agonists were used at concentrations in the EC50-EC80 range. Assays were read using a FlexStation® 3 (Molecular Devices) fluorescence plate reader configured with the parameters given in Table 4. The blue/green emission ratio for each well was calculated by dividing the blue emission values by the green emission values. All inhibition curves were fitted using a four-parameter dose-response using GraphPad Prism™ (Version 7.01).
The Human CXCR2 Tango™ cell line was used to assess the ability of antibody BKO-4A8-101c to inhibit β-arrestin recruitment to agonist-activated CXCR2. All human ELR+ chemokine CXCR2 ligands were tested in antagonist dose response assays using calculated EC50 values of agonist.
The commercially available reporter cell line Tango™ CXCR2-bla U2OS (ThermoFisher Scientific) was used to assess the ability of the anti-CXCR2 antibodies to inhibit β-arrestin recruitment to agonist-activated CXCR2. Agonists were provided at their assay EC50 concentration for antagonist assays.

Row | binding to native human CXCR2 on human PBMCs / neutrophils ([1]; FIG. 2, MFI) | potency of inhibition of CXCL1-mediated activation of CXCR2, ranking (Human CXCR2; agonist CXCL1, BKO-4A8, BKO-8G3_b, BKO-9C3_a compared) | IC50 (Human CXCR2; agonist CXCL1, combinatorial variants, read-out: CXCL1 IC50) [nM] | IC50 (Human CXCR2; agonist CXCL1, point variants, read-out: Tango Assay IC50 (nM) CXCL1) [nM] | IC50 (Human CXCR2; read-out: CXCL8 IC50, agonist CXCL8, combinatorial variants) [nM] | IC50 (Human CXCR2; read-out: Tango Assay IC50 (nM) CXCL8, agonist CXCL8, point variants) [nM] | Molecule | binding to neutrophils and monocytes from human blood ([1]; APC conjugate, 2 μg/mL) | fold more potent than comparator CXCR2 antagonist antibodies or small molecules (Human CXCR2; CXCL1- or CXCL5-mediated β-arrestin activation, based on IC50 values) | CXCL1 Maximal Inhibition % (Human CXCR2; CXCL1 at EC50, comparison with comparators) [%] | potency compared to the parental antibody (Human CXCR2; CXCL1 or CXCL8 as agonist) | CXCL5 Maximal Inhibition % (Human CXCR2; CXCL5 at EC50, comparison with comparators) [%] | partial inhibition of CXCL8-induced β-arrestin recruitment (range) (Human CXCR2; CXCL8) | CXCL8 Maximal Inhibition % (Human CXCR2; CXCL8 at EC50, comparison with comparators) [%] | Maximal Inhibition % Mean (Human CXCR2; Hu CXCL1) [%] | Maximal Inhibition % Mean (Human CXCR2; Hu CXCL2) [%] | Maximal Inhibition % Mean (Human CXCR2; Hu CXCL3) [%] | Maximal Inhibition % Mean (Human CXCR2; Hu CXCL5) [%] | Maximal Inhibition % Mean (Human CXCR2; Hu CXCL6) [%] | Maximal Inhibition % Mean (Human CXCR2; Hu CXCL7) [%] | Maximal Inhibition % Mean (Human CXCR2; Hu CXCL8) [%]
1 | high binding activity | consistently the most potent | 94 | 0.177 | 0.66 | 0.112 | BKO-4A8: parental anti-CXCR2 antibody, VH SEQ ID NO: 17, VL SEQ ID NO: 18 (antibody, V domains shown, BKO_4A8_VH; BKO_4A8_VL) VH: EVQLLESGGGLVQPGGSLRLSCAASGFTFSSSTMSWVRQAPGKGLEWVSAISGRGRNTYYADSVKGRFTISRDNSRNTLYLQMNSLRAEDTAVYYCAIQMGYWGQGILVTVSS VL: QSALTQPPSASGSPGQSVTISCIGTSSDVGGYNYVSWYQQHPDKAPKLMIYEVNKRPSGVPDRFSGSKSGNTASLTVSGLQAEDEADYYCSSYAGNNNFGVFGGGTKLTVL | – | – | – | – | – | – | – | – | – | – | – | – | – | –
2 | – | – | – | – | – | – | 101c: VH SEQ ID NO: 108, VL SEQ ID NO: 110; renamed BKO-4A8-101c (antibody, V domains shown, 4A8 VH Variant 101 M34Q_A40P_N56S_R75K_M96A; 4A8 VL variant c D41G_N52S_N94S, renamed BKO-4A8-101c) VH: EVQLLESGGGLVQPGGSLRLSCAASGFTFSSSTQSWVRQPPGKGLEWVSAISGRGRSTYYADSVKGRFTISRDNSKNTLYLQMNSLRAEDTAVYYCAIQAGYWGQGILVTVSS VL: QSALTQPPSASGSPGQSVTISCIGTSSDVGGYNYVSWYQQHPGKAPKLMIYEVSKRPSGVPDRFSGSKSGNTASLTVSGLQAEDEADYYCSSYAGSNNFGVFGGGTKLTVL | bound neutrophils (FIG. 12A) and monocytes (FIG. 12B) | 2- to 39 fold | 97 | improved potency | 98 | 70-80% | 78 | 98 | 100 | 96 | 98 | 98 | 76 | 78
